Source: the supplement of paper PMC10065799, “High-throughput profiling of sequence recognition by tyrosine kinases and SH2 domains using bacterial peptide display” (eLife, 2023)

Key:
[1] = tested on: AncSZ; experiment: phosphorylation enrichment, bacterial display (enrichment ratio); higher = better substrate or ligand; peptides without Tyr show the background
[2] = target: EPHB1 (UniProt P54762); experiment: as above
[3] = target: EPHB2 (UniProt P29323); experiment: as above
[4] = target: FGFR1 (UniProt P11362); experiment: as above
[5] = target: FGFR3 (UniProt P22607); experiment: as above
[6] = tested on: Fer (mouse); experiment: as above
[7] = target: Fes (UniProt P07332); experiment: as above
[8] = target: Fyn (UniProt P06241); experiment: as above
[9] = target: Hck (UniProt P08631); experiment: as above
[10] = target: Jak2 (UniProt O60674); experiment: as above
[11] = target: MERTK (UniProt Q12866); experiment: as above
[12] = tested on: c-Abl (mouse); experiment: as above
[13] = tested on: c-Src; experiment: as above
[14] = target: Grb2 SH2 (UniProt P62993); experiment: SH2 binding enrichment of the phosphorylated peptide, bacterial display (enrichment ratio); higher = better substrate or ligand; peptides without Tyr show the background
[15] = target: SHP2-C SH2; experiment: as above
[16] = target: c-Src SH2; experiment: as above
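Throughout, for SH2 binding enrichment of the phosphorylated peptide, bacterial display: peptide library displayed on the E. coli surface as eCPX fusions, selected cells deep-sequenced, score is each peptide's frequency after selection divided by its frequency in the input.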
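Throughout, for phosphorylation enrichment, bacterial display: 11-residue human phosphosite peptides and single-mutation variants displayed on the E. coli surface, counted by deep sequencing, each peptide's frequency after selection divided by its frequency in the unselected input library; frequency after pTyr selection over input frequency; kinase dosed for 20-30% of maximal phosphorylation in three min.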

Sequence of Fyn (P06241 whole entry, looked up): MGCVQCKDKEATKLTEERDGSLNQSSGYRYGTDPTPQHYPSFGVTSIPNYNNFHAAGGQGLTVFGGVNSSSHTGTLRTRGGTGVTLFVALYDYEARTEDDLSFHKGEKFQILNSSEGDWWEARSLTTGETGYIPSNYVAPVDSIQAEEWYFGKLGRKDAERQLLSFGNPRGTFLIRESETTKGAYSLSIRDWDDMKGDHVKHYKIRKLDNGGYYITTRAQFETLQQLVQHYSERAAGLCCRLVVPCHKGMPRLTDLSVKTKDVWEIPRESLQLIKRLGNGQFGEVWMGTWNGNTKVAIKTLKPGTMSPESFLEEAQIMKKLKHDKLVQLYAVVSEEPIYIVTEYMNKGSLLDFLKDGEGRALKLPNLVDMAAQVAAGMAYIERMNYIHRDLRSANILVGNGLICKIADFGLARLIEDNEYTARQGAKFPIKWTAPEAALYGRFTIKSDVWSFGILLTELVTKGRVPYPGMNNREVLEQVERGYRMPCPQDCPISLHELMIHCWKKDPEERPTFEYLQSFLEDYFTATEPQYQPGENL
Sequence of EPHB2 (P29323 whole entry, looked up): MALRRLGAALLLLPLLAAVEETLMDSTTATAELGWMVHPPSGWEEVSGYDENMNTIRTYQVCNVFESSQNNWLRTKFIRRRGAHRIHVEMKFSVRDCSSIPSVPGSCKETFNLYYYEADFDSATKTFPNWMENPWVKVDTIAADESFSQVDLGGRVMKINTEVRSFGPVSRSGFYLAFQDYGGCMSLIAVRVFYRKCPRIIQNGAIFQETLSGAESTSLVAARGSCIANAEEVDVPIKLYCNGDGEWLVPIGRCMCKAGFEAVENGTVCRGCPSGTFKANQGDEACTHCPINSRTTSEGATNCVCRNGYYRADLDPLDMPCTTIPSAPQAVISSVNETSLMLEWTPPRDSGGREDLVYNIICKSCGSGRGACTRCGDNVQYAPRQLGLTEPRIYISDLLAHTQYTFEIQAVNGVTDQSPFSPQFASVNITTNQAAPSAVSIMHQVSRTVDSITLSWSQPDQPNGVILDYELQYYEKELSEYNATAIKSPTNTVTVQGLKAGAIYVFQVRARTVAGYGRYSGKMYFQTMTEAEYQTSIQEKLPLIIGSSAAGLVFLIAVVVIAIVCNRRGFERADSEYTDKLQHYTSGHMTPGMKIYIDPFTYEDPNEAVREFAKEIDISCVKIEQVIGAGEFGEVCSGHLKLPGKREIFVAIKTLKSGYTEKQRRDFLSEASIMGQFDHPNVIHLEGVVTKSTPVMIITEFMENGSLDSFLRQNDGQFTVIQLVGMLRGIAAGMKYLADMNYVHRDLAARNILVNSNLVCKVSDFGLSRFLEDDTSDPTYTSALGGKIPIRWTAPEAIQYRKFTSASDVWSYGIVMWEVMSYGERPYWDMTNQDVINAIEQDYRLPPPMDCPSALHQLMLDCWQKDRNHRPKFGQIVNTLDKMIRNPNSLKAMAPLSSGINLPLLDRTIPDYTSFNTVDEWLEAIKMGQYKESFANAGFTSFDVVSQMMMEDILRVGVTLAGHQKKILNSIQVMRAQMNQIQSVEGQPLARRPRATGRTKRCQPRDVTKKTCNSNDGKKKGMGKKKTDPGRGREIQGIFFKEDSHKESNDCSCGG
Sequence of MERTK (Q12866 whole entry, looked up): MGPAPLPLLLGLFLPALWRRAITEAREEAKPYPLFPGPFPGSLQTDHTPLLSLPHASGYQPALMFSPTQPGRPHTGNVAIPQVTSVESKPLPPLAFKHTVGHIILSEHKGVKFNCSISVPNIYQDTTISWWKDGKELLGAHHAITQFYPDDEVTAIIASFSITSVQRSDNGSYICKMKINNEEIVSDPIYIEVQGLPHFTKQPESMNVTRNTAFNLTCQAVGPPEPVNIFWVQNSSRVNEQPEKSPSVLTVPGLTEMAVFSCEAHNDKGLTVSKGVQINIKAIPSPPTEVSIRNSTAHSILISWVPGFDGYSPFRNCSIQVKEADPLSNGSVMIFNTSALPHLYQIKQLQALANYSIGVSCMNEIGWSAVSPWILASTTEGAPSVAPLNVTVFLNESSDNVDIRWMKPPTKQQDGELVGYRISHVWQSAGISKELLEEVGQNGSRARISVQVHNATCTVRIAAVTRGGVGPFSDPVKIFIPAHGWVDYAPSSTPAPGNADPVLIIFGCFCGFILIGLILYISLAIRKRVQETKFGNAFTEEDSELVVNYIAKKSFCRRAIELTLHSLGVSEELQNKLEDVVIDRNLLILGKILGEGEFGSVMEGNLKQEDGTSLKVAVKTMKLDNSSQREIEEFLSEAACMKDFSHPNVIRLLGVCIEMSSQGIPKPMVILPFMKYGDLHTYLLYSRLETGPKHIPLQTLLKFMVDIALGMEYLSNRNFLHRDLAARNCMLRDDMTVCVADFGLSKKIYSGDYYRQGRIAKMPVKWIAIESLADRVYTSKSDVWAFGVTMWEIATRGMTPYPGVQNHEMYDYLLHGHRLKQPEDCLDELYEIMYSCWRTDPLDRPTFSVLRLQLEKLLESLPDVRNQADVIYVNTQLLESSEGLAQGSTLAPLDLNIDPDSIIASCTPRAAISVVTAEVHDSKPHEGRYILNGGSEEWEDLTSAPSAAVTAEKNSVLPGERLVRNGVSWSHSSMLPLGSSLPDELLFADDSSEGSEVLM
Sequence of Hck (P08631 whole entry, looked up): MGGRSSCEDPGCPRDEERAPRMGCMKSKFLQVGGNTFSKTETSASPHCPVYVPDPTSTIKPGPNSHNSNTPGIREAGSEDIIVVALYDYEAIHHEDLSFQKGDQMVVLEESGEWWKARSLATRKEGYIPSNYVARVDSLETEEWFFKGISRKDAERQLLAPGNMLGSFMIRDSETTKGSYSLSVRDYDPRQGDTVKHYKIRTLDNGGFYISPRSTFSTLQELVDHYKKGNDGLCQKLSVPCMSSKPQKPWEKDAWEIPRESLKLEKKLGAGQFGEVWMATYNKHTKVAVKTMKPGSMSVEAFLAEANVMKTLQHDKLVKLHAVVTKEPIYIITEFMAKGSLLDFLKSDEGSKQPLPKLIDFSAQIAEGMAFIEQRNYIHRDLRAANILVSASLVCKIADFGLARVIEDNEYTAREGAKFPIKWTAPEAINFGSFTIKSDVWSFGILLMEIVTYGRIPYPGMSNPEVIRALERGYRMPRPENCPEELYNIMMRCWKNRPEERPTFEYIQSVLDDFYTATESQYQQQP
Sequence of FGFR1 (P11362 whole entry, looked up): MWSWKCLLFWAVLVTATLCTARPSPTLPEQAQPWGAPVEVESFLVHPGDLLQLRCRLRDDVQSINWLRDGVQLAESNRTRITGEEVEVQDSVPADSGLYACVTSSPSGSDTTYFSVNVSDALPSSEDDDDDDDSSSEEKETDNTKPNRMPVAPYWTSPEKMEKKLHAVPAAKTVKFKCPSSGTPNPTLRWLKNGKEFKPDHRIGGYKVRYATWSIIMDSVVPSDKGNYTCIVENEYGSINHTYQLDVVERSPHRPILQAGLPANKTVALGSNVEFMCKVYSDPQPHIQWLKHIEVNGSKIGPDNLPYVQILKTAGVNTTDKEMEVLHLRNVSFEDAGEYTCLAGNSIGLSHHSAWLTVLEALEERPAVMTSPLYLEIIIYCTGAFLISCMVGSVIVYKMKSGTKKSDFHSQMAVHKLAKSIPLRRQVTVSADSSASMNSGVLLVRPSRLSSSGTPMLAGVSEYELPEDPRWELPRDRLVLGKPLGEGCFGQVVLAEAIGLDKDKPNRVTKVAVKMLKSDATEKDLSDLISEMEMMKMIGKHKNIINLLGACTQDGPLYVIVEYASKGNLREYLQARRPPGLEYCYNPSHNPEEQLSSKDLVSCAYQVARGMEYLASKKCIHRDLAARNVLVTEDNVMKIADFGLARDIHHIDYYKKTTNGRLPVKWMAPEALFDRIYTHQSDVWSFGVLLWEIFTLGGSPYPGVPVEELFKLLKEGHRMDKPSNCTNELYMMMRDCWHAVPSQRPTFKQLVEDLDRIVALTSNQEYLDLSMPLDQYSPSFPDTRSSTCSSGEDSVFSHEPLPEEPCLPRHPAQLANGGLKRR
Sequence of FGFR3 (P22607 whole entry, looked up): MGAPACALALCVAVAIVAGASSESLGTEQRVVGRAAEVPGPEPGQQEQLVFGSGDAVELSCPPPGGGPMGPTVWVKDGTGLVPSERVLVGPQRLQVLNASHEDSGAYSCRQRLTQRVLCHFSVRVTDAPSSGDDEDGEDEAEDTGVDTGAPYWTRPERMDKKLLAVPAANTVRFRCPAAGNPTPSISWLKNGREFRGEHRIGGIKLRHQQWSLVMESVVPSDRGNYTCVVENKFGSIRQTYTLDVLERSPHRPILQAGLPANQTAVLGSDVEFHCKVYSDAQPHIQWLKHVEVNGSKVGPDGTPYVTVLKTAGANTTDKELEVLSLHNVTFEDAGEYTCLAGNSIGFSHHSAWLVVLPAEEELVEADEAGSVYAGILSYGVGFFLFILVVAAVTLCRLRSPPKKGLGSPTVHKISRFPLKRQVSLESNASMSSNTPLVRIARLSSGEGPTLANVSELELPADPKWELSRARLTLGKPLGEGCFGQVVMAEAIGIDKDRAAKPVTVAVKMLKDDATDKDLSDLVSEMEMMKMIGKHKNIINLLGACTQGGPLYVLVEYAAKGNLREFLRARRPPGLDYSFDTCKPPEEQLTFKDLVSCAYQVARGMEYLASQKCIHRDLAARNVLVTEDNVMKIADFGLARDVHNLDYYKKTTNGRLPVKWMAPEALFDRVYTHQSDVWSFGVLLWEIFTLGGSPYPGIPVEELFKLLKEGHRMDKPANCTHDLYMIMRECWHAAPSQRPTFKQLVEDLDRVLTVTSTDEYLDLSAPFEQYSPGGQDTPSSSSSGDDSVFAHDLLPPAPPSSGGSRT

Sequence | SH2 binding enrichment [14] | SH2 binding enrichment [15] | SH2 binding enrichment [16] | phosphorylation enrichment [1] | phosphorylation enrichment [2] | phosphorylation enrichment [3] | phosphorylation enrichment [4] | phosphorylation enrichment [5] | phosphorylation enrichment [6] | phosphorylation enrichment [7] | phosphorylation enrichment [8] | phosphorylation enrichment [9] | phosphorylation enrichment [10] | phosphorylation enrichment [11] | phosphorylation enrichment [12] | phosphorylation enrichment [13]
KFEDVYVRICL [B3GALNT1_Y269_G271R] | 0.816 | 0.758 | 0.472 | 1.64 | 0.655 | 0.582 | 0.512 | 0.926 | 0.593 | 1.38 | 0.452 | 0.479 | 1.28 | 0.436 | 1.03 | 0.545
PTFEHYANSTQ [SLC12A3_Y70_YF] | 1.43 | 0.576 | 1.09 | 1.34 | 0.768 | 0.993 | 0.818 | 0.988 | 1.14 | 1.07 | 0.852 | 0.598 | 0.742 | 0.771 | 0.742 | 0.433
QRTMKYTTATG [MCCC1_Y41] | 0.85 | 0.432 | 0.473 | 0.602 | 0.314 | 0.7 | 0.692 | 0.518 | 0.722 | 0.669 | 0.475 | 0.551 | 0.449 | 0.524 | 0.727 | 0.411
NHRNQYQALKP [CLSPN_Y887] | 1.06 | 1.05 | 0.915 | 0.739 | 0.375 | 0.377 | 0.351 | 0.438 | 0.356 | 0.534 | 0.335 | 0.504 | 0.463 | 0.531 | 0.476 | 0.404
ATDLAYYLVCK [ASL_Y375_R379C] | 0.803 | 0.505 | 0.59 | 2.13 | 1.08 | 0.885 | 3.43 | 3.06 | 0.696 | 1.77 | 0.852 | 1.02 | 2.82 | 0.884 | 1.04 | 1.06
TPIFPYLLPKS [PLD2_Y580_T577I_YF] | 0.877 | 0.451 | 0.393 | 0.632 | 0.467 | 0.463 | 0.825 | 1.57 | 0.551 | 0.685 | 0.799 | 0.64 | 0.723 | 0.538 | 0.7 | 0.489
KRYRIYHLAIS [BRCA2_Y3009_T3013I] | 1.13 | 1.03 | 1.51 | 0.535 | 0.37 | 0.358 | 0.599 | 0.464 | 0.406 | 0.68 | 0.343 | 0.446 | 0.604 | 0.62 | 0.449 | 0.459
ECKASYPGKIT [PRSS3_Y232] | 0.823 | 0.56 | 0.557 | 0.53 | 0.357 | 0.389 | 0.431 | 0.418 | 0.396 | 0.596 | 0.319 | 0.323 | 0.396 | 0.402 | 0.489 | 0.438
QEVLEYFMKQM [PIK3CA_Y1038_A1035V] | 0.663 | 0.584 | 0.479 | 2.18 | 1.15 | 0.993 | 0.954 | 1.68 | 0.719 | 1.94 | 0.999 | 0.95 | 2.27 | 0.68 | 1.31 | 0.963
KLCHLYQDHMQ [WNT5A_Y86] | 1.08 | 1.17 | 1.4 | 0.654 | 0.54 | 0.53 | 0.44 | 0.514 | 0.667 | 0.881 | 0.442 | 0.554 | 0.549 | 0.45 | 0.597 | 0.575
KLSFSYGWALQ [ALDOB_Y302_R304W] | 0.921 | 0.67 | 0.558 | 1.52 | 0.844 | 0.764 | 0.676 | 0.936 | 0.591 | 1.8 | 0.503 | 0.509 | 1.72 | 0.559 | 1.19 | 0.585
YKIYRYTLNDN [FN1_Y1975_L1974R] | 0.77 | 0.832 | 0.534 | 1.13 | 0.467 | 0.557 | 0.439 | 0.617 | 0.406 | 1.04 | 0.368 | 0.573 | 0.905 | 0.331 | 0.688 | 0.415
GLDGSYLLTDS [SH2D1A_Y29_R32T] | 0.683 | 0.648 | 0.505 | 0.864 | 0.491 | 0.541 | 0.483 | 0.604 | 0.455 | 0.863 | 0.423 | 0.435 | 0.697 | 0.369 | 0.551 | 0.469
NTYEKYLEEEY [TF_Y669_G671E] | 0.743 | 0.607 | 2.16 | 1.6 | 0.802 | 0.686 | 0.553 | 0.86 | 0.563 | 1.93 | 0.535 | 0.608 | 1.6 | 0.563 | 1.27 | 0.9
TLKDVYDDGKY [RPS6KA3_Y483] | 0.85 | 0.737 | 0.528 | 1.02 | 0.51 | 0.497 | 0.557 | 0.64 | 0.506 | 1.12 | 0.58 | 0.706 | 0.909 | 0.557 | 0.758 | 0.62
KKEGPYDVVVL [PARK7_Y67] | 0.801 | 0.629 | 0.827 | 0.675 | 0.492 | 0.49 | 0.494 | 0.546 | 6.5 | 0.776 | 1.01 | 0.57 | 0.691 | 0.7 | 0.631 | 1.33
LAETSYVTVLE [MAGEA1_Y276_K278T] | 0.73 | 2.48 | 1.25 | 1.65 | 0.674 | 0.968 | 0.915 | 1.31 | 0.67 | 1.65 | 0.702 | 0.862 | 1.02 | 0.708 | 0.903 | 0.496
PPLMLYNPTTF [EGFR_Y270_YF] | 0.931 | 0.785 | 0.278 | 1.34 | 0.973 | 0.891 | 0.731 | 0.857 | 1.25 | 1.21 | 0.692 | 1.13 | 1.03 | 1 | 0.79 | 0.863

Now from value to sequence, other results behind:

SH2 binding enrichment [14] | SH2 binding enrichment [15] | SH2 binding enrichment [16] | Sequence | phosphorylation enrichment [1] | phosphorylation enrichment [2] | phosphorylation enrichment [3] | phosphorylation enrichment [4] | phosphorylation enrichment [5] | phosphorylation enrichment [6] | phosphorylation enrichment [7] | phosphorylation enrichment [8] | phosphorylation enrichment [9] | phosphorylation enrichment [10] | phosphorylation enrichment [11] | phosphorylation enrichment [12] | phosphorylation enrichment [13]
2.04 | 1.53 | 1.38 | CLLHCYFSQIH [MCM3AP_Y873_R878H] | 0.886 | 0.626 | 0.453 | 0.689 | 0.736 | 0.569 | 1.29 | 0.43 | 0.476 | 1.26 | 0.431 | 0.664 | 0.476
0.709 | 0.571 | 0.299 | NCLRQYVAGRF [CRB1_Y711_E710Q] | 0.993 | 0.39 | 0.492 | 0.382 | 0.467 | 0.367 | 0.646 | 0.477 | 0.337 | 0.62 | 0.456 | 0.576 | 0.444
0.919 | 0.681 | 0.508 | GSERDYTFDEL [EIF2S2_Y174_E177D_YF] | 1.25 | 0.577 | 0.564 | 0.583 | 0.871 | 0.582 | 1.18 | 0.474 | 0.528 | 1.21 | 0.515 | 0.837 | 0.639
0.987 | 0.908 | 0.519 | CGSLLYGLVHQ [PRKCG_Y122] | 0.889 | 2.22 | 4.64 | 0.545 | 0.663 | 12.9 | 1.2 | 5.73 | 7.19 | 0.673 | 7.41 | 0.664 | 5.57
0.816 | 0.725 | 0.45 | PLDGEYFTPQI [TP53_Y327_L330P] | 6.68 | 1.53 | 1.91 | 3.09 | 2.19 | 0.482 | 1.34 | 0.89 | 0.733 | 0.978 | 0.474 | 12.9 | 0.434
0.772 | 0.694 | 1.16 | LHQSTYQRYDV [SLC7A14_Y693] | 0.341 | 0.293 | 0.53 | 0.236 | 0.426 | 0.392 | 0.404 | 0.458 | 0.505 | 0.545 | 0.364 | 0.444 | 1.11
0.974 | 0.837 | 0.79 | EEAAGCAQESQ [CAMKV_Y491_Y491C] | 1.15 | 0.645 | 0.591 | 0.527 | 0.833 | 0.657 | 1.23 | 0.491 | 0.575 | 1.06 | 0.625 | 1.18 | 0.491
0.727 | 0.708 | 0.44 | LPQDGYRIVQH [PTPRT_Y1329_R1324L] | 0.672 | 0.402 | 0.423 | 0.403 | 0.55 | 0.408 | 0.809 | 0.43 | 0.418 | 0.575 | 0.361 | 0.716 | 0.346
0.743 | 0.642 | 0.531 | SGVSYYINLCQ [IGF2R_Y2025_N2020S] | 1.01 | 0.682 | 0.635 | 0.543 | 0.824 | 1.03 | 1.5 | 0.38 | 0.51 | 1.32 | 0.316 | 0.803 | 0.33
0.921 | 0.873 | 0.513 | KEDPEYKKKFR [FAM161A_Y278_E273K] | 0.749 | 0.499 | 0.589 | 0.534 | 0.6 | 0.455 | 1.07 | 0.34 | 0.477 | 1.02 | 0.433 | 0.824 | 0.502
0.854 | 1.54 | 0.773 | ANAYIYDVQLP [L1CAM_Y420_V421D] | 1.25 | 3.15 | 2.78 | 0.65 | 0.89 | 1.72 | 1.05 | 10.3 | 6.89 | 0.905 | 9.63 | 0.954 | 7.22
0.931 | 1.04 | 0.502 | WDLPEYSFKDP [ITGA3_Y237_S235P_YF] | 2.37 | 0.558 | 0.571 | 0.486 | 0.836 | 0.421 | 1.25 | 3.1 | 1.19 | 1.18 | 0.381 | 0.871 | 1.02
0.726 | 0.617 | 0.539 | GLETSYIEDNC [PAH_Y24_Q20L] | 1.04 | 0.585 | 0.569 | 0.655 | 0.564 | 0.466 | 0.937 | 0.525 | 0.487 | 0.873 | 0.497 | 0.744 | 0.513
0.803 | 0.628 | 0.488 | SGETEYNPTEA [NBEAL2_Y2748] | 1.47 | 0.729 | 0.671 | 0.77 | 0.82 | 0.604 | 1.55 | 0.69 | 0.707 | 1.26 | 0.562 | 1.16 | 0.59
0.886 | 1.15 | 0.446 | TKDTIYKQPMF [GBA_Y451_F450I] | 0.704 | 0.503 | 0.439 | 0.406 | 0.57 | 0.391 | 0.821 | 0.502 | 0.8 | 0.907 | 0.499 | 17.4 | 0.6
